Results reported in article PMC9482650, “Quantitative fragmentomics allow affinity mapping of interactomes” (Nature Communications, 2022).

Experiments:
Test in all cases: holdup assay
Design in all cases: key: below the threshold = too weak to quantify, mostly under pKd 3.1 to 4
DFNB31_2, Q9P202 = molecular target: T1, DFNB31_2, Q9P202
T1 sequence (Q9P202 274-371, limits assumed, looked up): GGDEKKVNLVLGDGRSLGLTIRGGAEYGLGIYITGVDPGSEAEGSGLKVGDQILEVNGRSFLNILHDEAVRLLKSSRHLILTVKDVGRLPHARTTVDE

AHNAK2, Q8IVF2 = details: plain residues with an end cap or a label only (N-terminal biotin on a linker: (peg)3)
Chain of AHNAK2, Q8IVF2 (Q8IVF2 108-193): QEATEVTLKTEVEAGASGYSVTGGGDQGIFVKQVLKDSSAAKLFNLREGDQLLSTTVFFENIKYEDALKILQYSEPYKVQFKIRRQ

CARD14, Q9BXL6 = details: plain residues with an end cap or a label only (N-terminal biotin on a linker: (peg)3)
Chain of CARD14, Q9BXL6 (Q9BXL6 558-663): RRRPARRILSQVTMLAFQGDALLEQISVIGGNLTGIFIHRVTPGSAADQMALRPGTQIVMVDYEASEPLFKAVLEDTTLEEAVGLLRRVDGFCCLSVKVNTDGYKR

GIPC1, O14908 = molecular target: T2, GIPC1, O14908; details: plain residues with an end cap or a label only (N-terminal biotin on a linker: (peg)3)
T2 sequence (O14908 128-223, limits assumed, looked up): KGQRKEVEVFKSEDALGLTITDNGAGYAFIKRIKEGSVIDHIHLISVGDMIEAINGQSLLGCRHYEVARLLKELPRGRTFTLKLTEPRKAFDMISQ

GRIP2_2, Q9C0E4 = details: plain residues with an end cap or a label only (N-terminal biotin on a linker: (peg)3)
Chain of GRIP2_2, Q9C0E4 (Q9C0E4 137-245): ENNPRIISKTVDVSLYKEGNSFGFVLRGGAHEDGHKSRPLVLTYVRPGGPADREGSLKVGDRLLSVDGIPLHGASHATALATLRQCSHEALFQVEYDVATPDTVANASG

LIMK1, P53667 = details: plain residues with an end cap or a label only (N-terminal biotin on a linker: (peg)3)
Chain of LIMK1, P53667 (P53667 155-268): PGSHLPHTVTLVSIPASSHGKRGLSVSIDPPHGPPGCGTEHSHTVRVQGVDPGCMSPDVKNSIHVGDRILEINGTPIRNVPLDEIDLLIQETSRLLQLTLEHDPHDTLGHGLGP

MAGI3_3, Q5TCQ9 = details: plain residues with an end cap or a label only (N-terminal biotin on a linker: (peg)3)
Chain of MAGI3_3, Q5TCQ9 (Q5TCQ9 572-655): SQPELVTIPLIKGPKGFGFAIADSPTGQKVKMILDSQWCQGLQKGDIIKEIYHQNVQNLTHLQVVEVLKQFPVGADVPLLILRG

MAGI3_4, Q5TCQ9 = details: plain residues with an end cap or a label only (N-terminal biotin on a linker: (peg)3)
Chain of MAGI3_4, Q5TCQ9 (Q5TCQ9 716-815): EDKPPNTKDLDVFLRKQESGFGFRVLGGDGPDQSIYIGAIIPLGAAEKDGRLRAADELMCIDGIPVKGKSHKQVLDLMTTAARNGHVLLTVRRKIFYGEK

MPDZ_13, O75970 = molecular target: T3, MPDZ_13, O75970; details: plain residues with an end cap or a label only (N-terminal biotin on a linker: (peg)3)
T3 sequence (O75970 1982-2070, limits assumed, looked up): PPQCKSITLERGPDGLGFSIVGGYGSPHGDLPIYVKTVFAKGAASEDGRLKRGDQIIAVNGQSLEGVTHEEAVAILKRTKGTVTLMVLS

MPDZ_3, O75970 = molecular target: T4, MPDZ_3, O75970; details: plain residues with an end cap or a label only (N-terminal biotin on a linker: (peg)3)
T4 sequence (O75970 372-473, limits assumed, looked up): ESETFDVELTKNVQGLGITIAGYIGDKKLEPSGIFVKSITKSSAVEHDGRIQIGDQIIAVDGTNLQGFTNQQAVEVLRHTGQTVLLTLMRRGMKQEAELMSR

NHERF1_2, O14745 = molecular target: T5, NHERF1_2, O14745; details: plain residues with an end cap or a label only (N-terminal biotin on a linker: (peg)3)
T5 sequence (O14745 149-244, limits assumed, looked up): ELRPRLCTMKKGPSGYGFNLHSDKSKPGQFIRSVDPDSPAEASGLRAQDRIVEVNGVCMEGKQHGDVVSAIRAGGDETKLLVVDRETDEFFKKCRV

NHERF3_2, Q5T2W1 = molecular target: T6, NHERF3_2, Q5T2W1; details: plain residues with an end cap or a label only (N-terminal biotin on a linker: (peg)3)
T6 sequence (Q5T2W1 129-225, limits assumed, looked up): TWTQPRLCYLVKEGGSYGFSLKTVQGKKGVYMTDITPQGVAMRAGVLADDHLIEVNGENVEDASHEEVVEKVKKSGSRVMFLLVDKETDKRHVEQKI

PARD3B_2, Q8TEW8 = details: plain residues with an end cap or a label only (N-terminal biotin on a linker: (peg)3)
Chain of PARD3B_2, Q8TEW8 (Q8TEW8 376-471): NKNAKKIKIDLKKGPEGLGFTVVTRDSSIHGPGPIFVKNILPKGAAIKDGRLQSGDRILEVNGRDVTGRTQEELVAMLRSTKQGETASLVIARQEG

PDZD11, Q5EBL8 = molecular target: T7, PDZD11, Q5EBL8; details: plain residues with an end cap or a label only (N-terminal biotin on a linker: (peg)3)
T7 sequence (Q5EBL8 42-139, limits assumed, looked up): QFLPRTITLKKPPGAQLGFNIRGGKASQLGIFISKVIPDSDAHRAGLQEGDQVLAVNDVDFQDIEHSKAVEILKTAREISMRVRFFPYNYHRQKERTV

PDZD2_6, O15018 = molecular target: T8, PDZD2_6, O15018; details: plain residues with an end cap or a label only (N-terminal biotin on a linker: (peg)3)
T8 sequence (O15018 2745-2839, limits assumed, looked up): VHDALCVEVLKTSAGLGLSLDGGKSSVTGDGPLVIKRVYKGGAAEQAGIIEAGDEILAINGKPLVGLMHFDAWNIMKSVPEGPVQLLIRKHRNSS

PDZD4, Q76G19 = molecular target: T9, PDZD4, Q76G19; details: plain residues with an end cap or a label only (N-terminal biotin on a linker: (peg)3)
T9 sequence (Q76G19 125-224, limits assumed, looked up): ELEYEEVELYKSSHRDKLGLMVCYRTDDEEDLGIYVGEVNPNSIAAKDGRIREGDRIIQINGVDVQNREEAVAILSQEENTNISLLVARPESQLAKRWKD

PREX2_2, Q70Z35 = molecular target: T10, PREX2_2, Q70Z35; details: plain residues with an end cap or a label only (N-terminal biotin on a linker: (peg)3)
T10 sequence (Q70Z35 672-764, limits assumed, looked up): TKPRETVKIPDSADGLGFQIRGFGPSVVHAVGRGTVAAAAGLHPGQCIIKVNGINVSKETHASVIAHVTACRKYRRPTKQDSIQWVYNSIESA

PTPN13_5, Q12923 = molecular target: T11, PTPN13_5, Q12923; details: plain residues with an end cap or a label only (N-terminal biotin on a linker: (peg)3)
T11 sequence (Q12923 1877-1975, limits assumed, looked up): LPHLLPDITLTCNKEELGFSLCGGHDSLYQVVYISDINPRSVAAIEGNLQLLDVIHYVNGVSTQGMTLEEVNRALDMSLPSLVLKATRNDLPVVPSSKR

PTPN4, P29074 = molecular target: T12, PTPN4, P29074; details: plain residues with an end cap or a label only (N-terminal biotin on a linker: (peg)3)
T12 sequence (P29074 512-599, limits assumed, looked up): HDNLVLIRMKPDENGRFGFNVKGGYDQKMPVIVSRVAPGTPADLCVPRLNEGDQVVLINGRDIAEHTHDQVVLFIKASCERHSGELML

RGS12, O14924 = molecular target: T13, RGS12, O14924; details: plain residues with an end cap or a label only (N-terminal biotin on a linker: (peg)3)
T13 sequence (O14924 17-108, limits assumed, looked up): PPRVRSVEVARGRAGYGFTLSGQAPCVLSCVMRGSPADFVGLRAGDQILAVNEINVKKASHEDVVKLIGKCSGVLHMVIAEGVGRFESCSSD

RGS3, P49796-9 = details: plain residues with an end cap or a label only (N-terminal biotin on a linker: (peg)3)
Chain of RGS3, P49796-9 (P49796 other isoform, or with tags, fused parts or gaps): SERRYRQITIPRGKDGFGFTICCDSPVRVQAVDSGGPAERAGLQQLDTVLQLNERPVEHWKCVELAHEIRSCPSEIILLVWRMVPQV

SCRIB_4, Q14160 = details: plain residues with an end cap or a label only (N-terminal biotin on a linker: (peg)3)
Chain of SCRIB_4, Q14160 (Q14160 1095-1204): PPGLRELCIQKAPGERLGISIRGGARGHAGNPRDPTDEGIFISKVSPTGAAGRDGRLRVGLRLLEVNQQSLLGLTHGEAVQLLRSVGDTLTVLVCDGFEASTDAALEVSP

USH1C_3, Q9Y6N9 = molecular target: T14, USH1C_3, Q9Y6N9; details: plain residues with an end cap or a label only (N-terminal biotin on a linker: (peg)3)
T14 sequence (Q9Y6N9 447-547, limits assumed, looked up): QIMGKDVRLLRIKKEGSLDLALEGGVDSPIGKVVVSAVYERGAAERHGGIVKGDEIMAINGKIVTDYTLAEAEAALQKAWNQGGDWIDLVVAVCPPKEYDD

[1] = plain residues with an end cap or a label only (N-terminal biotin on a linker: ado-ado)

SKPTRRETEV [HPV35-E6_-2P, P27228]
pKd (DFNB31_2, Q9P202; modified: phospho on T at position -2 from the C-terminal residue): below the threshold

CLREWCDAFL [BANF1, O75531]
pKd (DFNB31_2, Q9P202; [1]): below the threshold

LRSPRTPSEV [OR10G3, Q8NGC4]
pKd (DFNB31_2, Q9P202; [1]): below the threshold

YNNCLEILRV [DCAF7, P61962]
pKd (DFNB31_2, Q9P202; [1]): below the threshold

NLNSSEGVPDLLV [SARS-CoV-E, P59637]
pKd (AHNAK2, Q8IVF2): below the threshold
pKd (CARD14, Q9BXL6): below the threshold
pKd (DFNB31_2, Q9P202; plain residues with an end cap or a label only (N-terminal biotin on a linker: (peg)3)): below the threshold
pKd (GIPC1, O14908): below the threshold
pKd (GRIP2_2, Q9C0E4): below the threshold
pKd (LIMK1, P53667): below the threshold
pKd (MAGI3_3, Q5TCQ9): 3.85
pKd (MAGI3_4, Q5TCQ9): below the threshold
pKd (MPDZ_13, O75970): below the threshold
pKd (MPDZ_3, O75970): below the threshold
pKd (NHERF1_2, O14745): 3.74
pKd (NHERF3_2, Q5T2W1): below the threshold
pKd (PARD3B_2, Q8TEW8): below the threshold
pKd (PDZD11, Q5EBL8): below the threshold
pKd (PDZD2_6, O15018): 4.26
pKd (PDZD4, Q76G19): below the threshold
pKd (PREX2_2, Q70Z35): below the threshold
pKd (PTPN13_5, Q12923): below the threshold
pKd (PTPN4, P29074): below the threshold
pKd (RGS12, O14924): below the threshold
pKd (RGS3, P49796-9): below the threshold
pKd (SCRIB_4, Q14160): below the threshold
pKd (USH1C_3, Q9Y6N9): below the threshold

RRISSLESEV [GRIN2C, Q14957]
pKd (DFNB31_2, Q9P202; [1]): below the threshold

LGRSTPQSEV [DGKH, Q86XP1]
pKd (DFNB31_2, Q9P202; [1]): below the threshold

RRRESYSTTV [EVI5, O60447]
pKd (DFNB31_2, Q9P202; [1]): below the threshold

LPAHHNATRL [SLC34A1, Q06495;Q06495-1]
pKd (DFNB31_2, Q9P202; [1]): below the threshold

RRLPGKETMA [GRIK2, Q13002]
pKd (DFNB31_2, Q9P202; [1]): below the threshold

PPYRHRNTVV [ERBB4, Q15303]
pKd (DFNB31_2, Q9P202; [1]): below the threshold
